# Source: patent US20070099268A1, “Chimeric HCN channels” (priority 2005, published 2007)
# T1: HCN2 (Mus musculus, UniProt O88703)
# T1 sequence (O88703 1-863): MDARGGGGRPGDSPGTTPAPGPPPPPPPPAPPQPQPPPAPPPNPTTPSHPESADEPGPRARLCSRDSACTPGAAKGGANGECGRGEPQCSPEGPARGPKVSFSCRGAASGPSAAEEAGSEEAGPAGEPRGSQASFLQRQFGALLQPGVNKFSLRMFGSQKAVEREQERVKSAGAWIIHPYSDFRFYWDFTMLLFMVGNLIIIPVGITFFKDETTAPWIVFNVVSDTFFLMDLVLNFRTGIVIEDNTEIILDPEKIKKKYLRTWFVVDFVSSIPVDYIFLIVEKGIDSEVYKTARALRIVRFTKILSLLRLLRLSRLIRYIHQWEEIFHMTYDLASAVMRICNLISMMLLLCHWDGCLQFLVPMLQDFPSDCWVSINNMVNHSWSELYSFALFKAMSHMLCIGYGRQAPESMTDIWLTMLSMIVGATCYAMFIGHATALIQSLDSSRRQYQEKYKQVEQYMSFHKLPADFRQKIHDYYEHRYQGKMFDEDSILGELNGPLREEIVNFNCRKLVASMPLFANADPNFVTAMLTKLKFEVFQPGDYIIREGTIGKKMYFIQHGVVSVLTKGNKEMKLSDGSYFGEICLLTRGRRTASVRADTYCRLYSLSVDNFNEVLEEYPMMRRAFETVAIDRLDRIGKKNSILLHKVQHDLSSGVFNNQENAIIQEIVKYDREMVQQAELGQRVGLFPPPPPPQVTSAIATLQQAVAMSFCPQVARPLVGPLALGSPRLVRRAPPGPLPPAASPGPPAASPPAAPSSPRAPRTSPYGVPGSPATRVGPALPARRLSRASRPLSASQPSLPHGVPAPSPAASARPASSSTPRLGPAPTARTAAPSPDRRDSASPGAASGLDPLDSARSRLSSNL
# B1: HCN4: mouse HCN4 channel isoform (protein, UniProt O70507 1-1201, looked up)
# Potassium/sodium …: MDKLPPSMRKRLYSLPQQVGAKAWIMDEEEDGEEEGAGGRQDPSRRSIRLRPLPSPSPSVAAGCSESRGAALGATESEGPGRSAGKSSTNGDCRRFRGSLASLGSRGGGSGGAGGGSSLGHLHDSAEERRLIAAEGDASPGEDRTPPGLATEPERPATAAQPAASPPPQQPPQPASASCEQPSADTAIKVEGGAAASDQILPEAEVRLGQSGFMQRQFGAMLQPGVNKFSLRMFGSQKAVEREQERVKSAGFWIIHPYSDFRFYWDLTMLLLMVGNLIIIPVGITFFKDENTTPWIVFNVVSDTFFLIDLVLNFRTGIVVEDNTEIILDPQRIKMKYLKSWFVVDFISSIPVDYIFLIVETRIDSEVYKTARALRIVRFTKILSLLRLLRLSRLIRYIHQWEEIFHMTYDLASAVVRIVNLIGMMLLLCHWDGCLQFLVPMLQDFPHDCWVSINGMVNNSWGKQYSYALFKAMSHMLCIGYGRQAPVGMSDVWLTMLSMIVGATCYAMFIGHATALIQSLDSSRRQYQEKYKQVEQYMSFHKLPPDTRQRIHDYYEHRYQGKMFDEESILGELSEPLREEIINFNCRKLVASMPLFANADPNFVTSMLTKLRFEVFQPGDYIIREGTIGKKMYFIQHGVVSVLTKGNKETKLADGSYFGEICLLTRGRRTASVRADTYCRLYSLSVDNFNEVLEEYPMMRRAFETVALDRLDRIGKKNSILLHKVQHDLNSGVFNYQENEIIQQIVRHDREMAHCAHRVQAAASATPTPTPVIWTPLIQAPLQAAAATTSVAIALTHHPRLPAAIFRPPPGPGLGNLGAGQTPRHPRRLQSLIPSALGSASPASSPSQVDTPSSSSFHIQQLAGFSAPPGLSPLLPSSSSSPPPGACGSPPAPTPSTSTAAAASTTGFGHFHKALGGSLSSSDSPLLTPLQPGARSPQAAQPPPPLPGARGGLGLLEHFLPPPPSSRSPSSSPGQLGQPPGELSLGLAAGPSSTPETPPRPERPSFMAGASGGASPVAFTPRGGLSPPGHSPGPPRTFPSAPPRASGSHGSLLLPPASSPPPPQVPQRRGTPPLTPGRLTQDLKLISASQPALPQDGAQTLRRASPHSSGESVAAFSLYPRAGGGSGSSGGLGPPGRPYGAIPGQHVTLPRKTSSGSLPPPLSLFGARAASSGGPPLTTAAPQREPGARSEPVRSKLPSNL
# Legend:
# AdHCN2 infected culture = experiment: Modulation of spontaneous rate by drugs in an AdHCN2 infected culture; assay type: cell-based, rat; conditions: superfusion with drug; control record of same culture 48, 54 and 96 beats/min respectively
# [1] = tested on: expressed HCN2 current in a neonatal ventricular myocyte; experiment: Effect of threshold concentration of isoproterenol on expressed HCN2 current, two-step voltage protocol; assay type: cell-based, rat
# Description: The effect of isoproterenol is to shift the activation curve positive without increasing maximal current. This effect can be visualized by a two-step voltage protocol, with the first step to the midpoint of the activation curve and the second step to the maximum curve. FIG. 23 employs this two-step protocol to illustrate that this threshold concentration of isoproterenol shifts the activation curve of over-expressed HCN2 in a neonatal rat ventricle cell.
# [2] = tested on: native pacemaker current in sinus node; conditions: cited from earlier work
# hMSCs loaded with HCN2 = conditions: cited from earlier work
# [3] = molecular target: mouse Cx45 on transfected HeLa cells (mouse) (UniProt P28229)
# [4] = molecular target: rat Cx40 on transfected HeLa cells (rat) (UniProt P28234)
# [5] = molecular target: rat Cx43 on transfected HeLa cells (rat) (UniProt P08050)
# HCN1 = HCN1 (Mus musculus, UniProt O88704); experiment: Coexpression of HCN1 with MiRP1 or minK in Xenopus oocytes, two-microelectrode voltage clamp; conditions: maximal conductance
# HCN2 = molecular target: T1, HCN2; experiment: Coexpression of HCN2 with MiRP1 or minK in Xenopus oocytes, two-microelectrode voltage clamp; conditions: maximal conductance
# [6] = tested on: neonatal rat ventricular myocytes; experiment: Voltage clamp of HCN2 or HCN4 plasmid (lipofectin) expressed in neonatal rat ventricular myocytes; assay type: cell-based
# Description: cDNAs encoding mouse HCN2 (mHCN2, GenBank AJ225122) or HCN4 (mHCN4, GenBank deposit in progress) were subcloned into the pCI mammalian expression vector (Promega, Madison, Wis.). The resulting plasmids (pCI-mHCN2 or pCI-mHCN4) were used for neonatal rat ventricular myocyte transfection, as indicated. A separate plasmid (pEGFP-CI; Clontech, Palo Alto, Calif.) expressing the gene of enhanced green fluorescent protein (EGFP) as a visual marker for successful DNA transfer was included in all transfection experiments. For transfection, 2 μg of pCI-mHCN and […] of pEGFP-CI were first incubated in 200 μl of SFM containing 10 μl of lipofectin (Gibco Life Technologies, Rockville, Md.) at room temperature for 45 min. The mixture was then added to a 35-mm petri dish containing […] suspended in 0.8 ml of SFM. After overnight incubation at 37° C. in a CO2 incubator, the medium containing the plasmids and lipofectin was discarded and the dish was refilled with 2 ml of fresh SFM.
# The whole-cell voltage clamp technique was employed to record native If or expressed IHCN2 or IHCN4. Action potentials were recorded in current clamp mode, again using a whole cell patch electrode. Experiments were carried out on cells superfused at 35° C. Extracellular solution contained (mM): NaCl, 140; NaOH, 2.3; MgCl2, 1; KCl, 5.4; CaCl2, 1.0; HEPES, 5; glucose, 10; pH 7.4. To record from myocytes expressing native currents (If), myocytes expressing HCN2 (IHCN2) or HCN4 (IHCN4), [K^+]0 was increased to 10 mM, and MnCl2 (2 mM) and BaCl2 (4 mM) added to the superfusate to eliminate calcium and inward rectifier (IK1) currents. In some experiments CsCl (4 mM) was used extracellularly to identify the pacemaker current as the Cs-sensitive current. The patch pipette solution included (mM): aspartic acid, 130; KOH, 146; NaCl, 10; CaCl2, 2; EGTA-KOH, 5; Mg-ATP, 2; HEPES-KOH, 10, pH 7.2. Where indicated, 10 μM cAMP was included in the pipette solution. A fast solution changing apparatus expedited the experimental protocols. The pipette resistance was typically 1-3 M. An Axopatch-200B amplifier and pClampS software (Axon Instruments) were used for acquisition and data analysis. […]
# The activation relation of the native or expressed current can be determined from the steady-state I-V relation. In this case, the reversal potential (Vf) was separately determined from the fully activated I-V relation (Accili et al., 1991) and used to generate the activation relation (y=I/(gmax*(V−Vf)), where gmax is the maximal conductance). […] Tail currents were measured at a negative voltage (−125 mV) to avoid contamination by transient outward and other currents at less negative voltages. […]
# [7] = tested on: mammalian expression systems; conditions: cited from earlier work
# HCN1, sequence (O88704 whole entry): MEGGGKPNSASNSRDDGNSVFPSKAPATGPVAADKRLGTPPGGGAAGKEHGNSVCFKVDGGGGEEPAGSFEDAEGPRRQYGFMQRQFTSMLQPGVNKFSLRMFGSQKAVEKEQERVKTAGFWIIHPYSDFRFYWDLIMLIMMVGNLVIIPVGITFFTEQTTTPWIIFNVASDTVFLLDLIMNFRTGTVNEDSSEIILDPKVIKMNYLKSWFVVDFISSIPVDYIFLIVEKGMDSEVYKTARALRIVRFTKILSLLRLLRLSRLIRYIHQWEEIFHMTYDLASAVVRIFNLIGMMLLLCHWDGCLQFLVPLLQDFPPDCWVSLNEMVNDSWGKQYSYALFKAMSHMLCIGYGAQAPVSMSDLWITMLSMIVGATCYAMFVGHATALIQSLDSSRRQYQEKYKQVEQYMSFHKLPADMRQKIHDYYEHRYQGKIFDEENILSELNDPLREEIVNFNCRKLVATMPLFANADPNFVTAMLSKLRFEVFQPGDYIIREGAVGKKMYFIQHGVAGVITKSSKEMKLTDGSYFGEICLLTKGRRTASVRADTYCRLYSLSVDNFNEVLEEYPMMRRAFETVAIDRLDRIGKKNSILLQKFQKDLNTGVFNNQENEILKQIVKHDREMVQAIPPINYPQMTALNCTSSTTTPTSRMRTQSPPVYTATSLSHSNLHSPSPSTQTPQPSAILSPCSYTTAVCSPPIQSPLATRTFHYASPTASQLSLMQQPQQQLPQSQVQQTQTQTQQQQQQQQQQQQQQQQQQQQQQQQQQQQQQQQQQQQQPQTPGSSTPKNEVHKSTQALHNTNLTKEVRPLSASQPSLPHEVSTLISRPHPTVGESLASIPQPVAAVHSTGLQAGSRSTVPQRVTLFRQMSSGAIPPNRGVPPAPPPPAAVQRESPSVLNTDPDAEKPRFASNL
molecule,measurement,setting,value
CC(C)NCC(O)c1ccc(O)c(O)c1 (stereo not drawn) [isoproterenol],spontaneous rate during drug exposure,AdHCN2 infected culture,63 beats/min
same,positive shift of activation curve,[1],approximately 5 mV
same,threshold concentration on native pacemaker current,[2],approximately 1 nM
same,effect on expressed current,hMSCs loaded with HCN2,shift in activation such that increased current flowed at more positive potentials
human mesenchymal stem cells (cells without a defined receptor),junctional conductance in cell pairs (double voltage clamp),[3],11 nS
same,junctional conductance in cell pairs (double voltage clamp),[4],4.6 nS
same,junctional conductance in cell pairs (double voltage clamp),[5],7.9 nS
"minK: rat minK, the minimal K channel protein",enhancement of HCN1 conductance on coexpression,HCN1,does not enhance
same,enhancement of HCN2 expression on coexpression,HCN2,does not enhance
B1,activation kinetics compared to HCN2,[6]; for most voltages,markedly slower
same,slope factor (K),[6]; lipofectin transfection,6.7±0.7 mV
same,midpoint of activation reported in other mammalian expression studies,[7],−80 to −109 mV
